Target: ribosomal protein uL29 (B. subtilis (endogenous in the B. …, UniProt P12873 1-66))
Test: cryo-EM structure; (Bs)SRP pre-incubated with pppGpp, tenfold molar excess over MifM-stalled RNCs, 10 min at room temperature
Conditions: both partners purified

binding result: binds
B1: recombinant (Bs)SRP (Ffh and 6S RNA) (natural protein)
chain: MAFEGLADRLQQTISKIRGKGKVSEQDVKEMMREVRLALLEADVNFKVVKDFVKKVSERAVGQDVMKSLTPGQQVIKVVQEELTELMGGEESKIAVAKRPPTVIMMVGLQGAGKTTTSGKLANLLRKKHNRKPMLVAADIYRPAAIKQLETLGKQLDMPVFSLGDQVSPVEIAKQAIEKAKEEHYDYVILDTAGRLHIDHELMDELTNVKEIANPEEIFLVVDSMTGQDAVNVAKSFNEQLGLTGVVLTKLDGDTRGGAALSIRAVTNTPIKFAGLGEKLDALEPFHPERMASRILGMGDVLTLIEKAQASVDEDKAKELEQKMRTMSFTLDDFLEQLGQVRNMGPLDELLQMMPGAGKMKGLKNIQVDEKQLNHVEAIIKSMTVLEKEQPDIINASRRKRIAKGSGTSVQEVNRLLKQFDEMKKMMKQMTNMSKGKKKGFKLPFM
notes: Ffh, B. subtilis, full length; Ribonucleoprotein: the protein stood with the 6S SRP RNA and with pppGpp or GMPPNP; also called full-length (Bs)Ffh; not shown: 6xHis, N-terminal, cleaved

Reference: publication PMC8881573, “Inhibition of SRP-dependent protein secretion by the bacterial alarmone (p)ppGpp” (Nature Communications, 2022)
